For three molecules, IC50 results are on record in patent publication US20140249076A1 (AstraZeneca / MedImmune, published 2014).

The target in experiment [1] is T1, amylin receptor (RNA membranes).
T1 construct: Membrane preparation
Briefly: displacement of 125I-rat amylin from RNA membranes. The source says: Dried glass fiber plates were combined with scintillant and counted on a multi-well Perkin Elmer scintillation counter, as well known in the art.

In experiment [2] the target is T2, CGRP receptor (SK-N-MC cell membranes) (UniProt Q16602 23-461; O60894 27-148).
T2 construct: whole, on cells
T2 sequence (Q16602 23-461, chain 1 of 2): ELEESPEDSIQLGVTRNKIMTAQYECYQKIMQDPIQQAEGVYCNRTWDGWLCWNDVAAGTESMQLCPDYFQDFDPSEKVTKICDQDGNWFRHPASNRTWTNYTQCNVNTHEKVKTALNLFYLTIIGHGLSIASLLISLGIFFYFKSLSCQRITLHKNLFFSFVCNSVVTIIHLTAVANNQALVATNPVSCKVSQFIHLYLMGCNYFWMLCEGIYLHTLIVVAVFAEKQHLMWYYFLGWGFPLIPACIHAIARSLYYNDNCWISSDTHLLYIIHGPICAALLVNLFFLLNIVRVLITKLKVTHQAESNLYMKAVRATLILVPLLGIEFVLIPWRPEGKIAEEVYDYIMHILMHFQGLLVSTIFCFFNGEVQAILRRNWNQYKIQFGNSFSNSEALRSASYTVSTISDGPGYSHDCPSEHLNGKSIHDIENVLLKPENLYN
T2 sequence (O60894 27-148, chain 2 of 2): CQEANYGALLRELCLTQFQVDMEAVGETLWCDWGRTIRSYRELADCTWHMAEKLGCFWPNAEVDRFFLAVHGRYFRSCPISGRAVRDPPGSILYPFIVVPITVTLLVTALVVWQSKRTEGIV
Description: displacement of 125I-human CGRP from SK-N-MC cell membranes. An excerpt: Dried glass fiber plates were combined with scintillant and counted on a multiwell Perkin Elmer scintillation counter.

Numbered stars: 1 amine (or outer) side, 2 acyl side, 3 side chain; on linkers, the order of the positions; unused ones are H or OH. Side chains are listed from the residue outwards. Ends that are not written are not given here. γGlu = O=C(O)[C@H](CCC(=O)[*:2])N[*:1]

B1: Cmpd 192 ([K^1ε-(γ-Glu(Nα-C16-Chain))]-Cmpd 17) (peptide)
peptide: K([γGlu-C16‑Chain])CNTATCALQRLAQELHRLQTYPRTNVGSNTY-NH2
modifications: ends and bridges not checked
notes: Lys 1 is already present in Cmpd 17
The IC50 is the midpoint of a concentration-inhibition curve. A higher IC50 goes with a need for much substance. With B1, the IC50 stood at 0.518 nM in experiment [1] and 4.45 nM in experiment [2].

B2: Cmpd 17 (peptide)
peptide: KCNTATCALQRLAQELHRLQTYPRTNVGSNTY-NH2
modifications: ends and bridges not checked
notes: Parent peptide of the fatty acid acylated compounds
In the case of B2, the values for the IC50 in experiment [1] and in experiment [2] were 0.028 nM and 1.26 nM, respectively.

B3: Cmpd 195 (Kε-(γ-Glu(Nα-C16-Chain))-Cmpd 17) (peptide)
peptide: K([γGlu-C16‑Chain])KCNTATCALQRLAQELHRLQTYPRTNVGSNTY-NH2
modifications: ends and bridges not checked
notes: The description is read as an extra acylated Lys placed before the N-terminus of Cmpd 17
Turning to B3, the IC50 worked out at 0.137 nM in experiment [1] and 0.603 nM in experiment [2].
